Measurements: patent US20100009920

Key:
[1] = biological target: T1, GST-tagged EGFR-DEL3 (amino acid 1046-1186)
T1 chain: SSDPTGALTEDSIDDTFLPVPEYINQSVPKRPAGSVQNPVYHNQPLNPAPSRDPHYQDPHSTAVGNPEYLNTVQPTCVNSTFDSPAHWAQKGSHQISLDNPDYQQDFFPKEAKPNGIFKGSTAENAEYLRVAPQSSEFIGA

[2] = biological target: T2, GST-tagged EGFR-DEL1 (amino acid 692-891)
T2 chain: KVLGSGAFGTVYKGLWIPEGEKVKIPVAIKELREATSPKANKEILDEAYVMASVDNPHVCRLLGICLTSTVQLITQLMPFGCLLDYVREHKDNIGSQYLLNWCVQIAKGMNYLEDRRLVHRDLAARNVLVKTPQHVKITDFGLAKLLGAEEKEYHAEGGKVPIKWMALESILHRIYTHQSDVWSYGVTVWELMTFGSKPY

[3] = biological target: T3, EGFR-DEL4 (amino acid 977-1045) protein
T3 chain: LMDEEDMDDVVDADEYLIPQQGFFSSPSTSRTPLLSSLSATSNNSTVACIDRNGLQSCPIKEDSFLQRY

[4] = biological target: catalytically-active recombinant GST-tagged human EGFR (active-rhEGFR; Upstate), P00533
[5] = biological target: GST-tagged EGFR-DEL2 protein (amino acid 889-1045)
[6] = biological target: GST-tagged EGFR-DEL2 (Y992A) protein

B1: purified recombinant His-tagged TTK (protein)
chain: MESEDLSGRELTIDSIMNKVRDIKNKFKNEDLTDELSLNKISADTTDNSGTVNQIMMMANNPEDWLSLLLKLEKNSVPLSDALLNKLIGRYSQAIEALPPDKYGQNESFARIQVRFAELKAIQEPDDARDYFQMARANCKKFAFVHISFAQFELSQGNVKKSKQLLQKAVERGAVPLEMLEIALRNLNLQKKQLLSEEEKKNLSASTVLTAQESFSGSLGHLQNRNNSCDSRGQTTKARFLYGENMPPQDAEIGYRNSLRQTNKTKQSCPFGRVPVNLLNSPDCDVKTDDSVVPCFMKRQTSRSECRDLVVPGSKPSGNDSCELRNLKSVQNSHFKEPLVSDEKSSELIITDSITLKNKTESSLLAKLEETKEYQEPEVPESNQKQWQSKRKSECINQNPAASSNHWQIPELARKVNTEQKHTTFEQPVFSVSKQSPPISTSKWFDPKSICKTPSSNTLDDYMSCFRTPVVKNDFPPACQLSTPYGQPACFQQQQHQILATPLQNLQVLASSSANECISVKGRIYSILKQIGSGGSSKVFQVLNEKKQIYAIKYVNLEEADNQTLDSYRNEIAYLNKLQQHSDKIIRLYDYEITDQYIYMVMECGNIDLNSWLKKKKSIDPWERKSYWKNMLEAVHTIHQHGIVHSDLKPANFLIVDGMLKLIDFGIANQMQPDTTSVVKDSQVGTVNYMPPEAIKDMSSSRENGKSKSKISPKSDVWSLGCILYYMTYGKTPFQQIINQISKLHAIIDPNHEIEFPDIPEKDLQDVLKCCLKRDPKQRISIPELLAHPYVQIQTHPVNQMAKGTTEEMKYVLGQLVGLNSPNSILKAAKTLYEHYSGGESHNSSSSKTFEKKRGKK
tyrosine phosphorylation (in vitro kinase assay, western blot) [1]: other tyrosine residues in GST-tagged EGFR-DEL1 (amino acid 692-891), EGFR-DEL2 and EGFR-DEL3 (amino acid 1046-1186) proteins were not phosphorylated at all | tyrosine phosphorylation (in vitro kinase assay, western blot) [2]: other tyrosine residues in GST-tagged EGFR-DEL1 (amino acid 692-891), EGFR-DEL2 and EGFR-DEL3 (amino acid 1046-1186) proteins were not phosphorylated at all | phosphorylation of EGFR Tyr-992 (in vitro kinase assay) [3]: EGFR-DEL4 (amino acid 977-1045) protein was not phosphorylated at Tyr-992 (data not shown) | tyrosine phosphorylation of active-rhEGFR (in vitro kinase assay, anti-phospho-tyrosine western blot) [4]: the phosphorylation of active-rhEGFR by TTK was not inhibited by AG1478 | phosphorylation of EGFR Tyr-992 (in vitro kinase assay, western blot) [5]: Phosphorylation of EGFR Tyr-992 in GST-tagged EGFR-DEL2 protein (amino acid 889-1045) was promoted in a TTK-dose dependent manner | phosphorylation site by MALDI tandem mass spectrometry after in vitro phosphorylation [5]: phosphorylation of EGFR Ser-967 was identified (data not shown) | 32P incorporation ([gamma-32P] ATP in vitro kinase assay, autoradiography) [6]: This mutation remarkably reduced the intensity of lower-band, but did not reduce that of upper-band
